Measured values reported in patent US20080233589A1 (WASHINGTON UNIVERSITY IN ST LOUIS, published 2008).

Tests used:
[1] = target: T1, human FKBP-12 fused through a flexible Gly/Ser linker to a C-terminal luciferase fragment (human, UniProt P62942 2-108); assay: split luciferase complementation in live HEK293T cells, rapamycin titrated for 8 h; all productive click beetle green or red fragment pairs (apparent Kd on the rapamycin concentration)
T1 construct: Stands for the set of CLuc-FKBP fusions (GC, RC, FC) expressed in HEK293T cells; also called CLuc-FKBP; not shown: C-terminal luciferase fragment; differs between the pairs pooled in the result (click beetle green or red residues 395-5); flexible Gly/Ser linker with multiple cloning site
T1 sequence (P62942 2-108): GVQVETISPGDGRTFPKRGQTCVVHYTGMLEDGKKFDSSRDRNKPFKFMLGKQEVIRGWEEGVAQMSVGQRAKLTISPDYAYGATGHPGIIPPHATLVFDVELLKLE

[2] = target: T1, human FKBP-12 fused through a flexible …; assay: cell-based or functional assay
[3] = target: T1, human FKBP-12 fused through a flexible …; assay: split luciferase complementation in HEK293T cells, fold induction by rapamycin (FIG. 7)

| Binder | Kd [1] | Ki for FK506 inhibition of rapamycin-induced FRB and FKBP binding (luciferase complementation, 10 nM rapamycin) [2] | binding result [3] |
| --- | --- | --- | --- |
| FRB domain of human mTOR (residues 2024-2113) fused through a flexible Gly/Ser linker to an N-terminal luciferase fragment (other, range 2024-2113; Stands for the set of FRB-NLuc fusions (GN, RN, FN) expressed in HEK293T cells; also called FRP; FRB-NLuc; not shown: flexible Gly/Ser linker with multiple cloning site; N-terminal luciferase fragment; differs between the pairs pooled in the result (click beetle green or red residues 2-413)) HEMWHEGLEEASRLYFGERNVKGMFEVLEPLHAMMERGPQTLKETSFNQAYGRDLMEAQEWCRKYMKSGNVKDLTQAWDLYYHVFRRISK | 0.25 nM | 1.57 nM | – |
| FRB mutant S2035I fused to an N-terminal luciferase fragment (other, range 2024-2113; also called ΔF; mutant S20351 FRB; not shown: flexible Gly/Ser linker with multiple cloning site; N-terminal luciferase fragment of the 'native split luciferase pairs') HEMWHEGLEEAIRLYFGERNVKGMFEVLEPLHAMMERGPQTLKETSFNQAYGRDLMEAQEWCRKYMKSGNVKDLTQAWDLYYHVFRRISK | – | – | no binding |
